Residue numbers refer to the chain shown, from its start. Numbers in names are those of the source.

The chains are these.
T1: Biotin-FcγRIIB (human FcγRIIB, Sino Biological) (human, UniProt P31994 43-217, limits assumed, biotin-labeled)
T1 construct: Used at 1 µg/ml with Streptavidin-APC for flow cytometry and sorting; also called CD32b
T1 sequence (looked up): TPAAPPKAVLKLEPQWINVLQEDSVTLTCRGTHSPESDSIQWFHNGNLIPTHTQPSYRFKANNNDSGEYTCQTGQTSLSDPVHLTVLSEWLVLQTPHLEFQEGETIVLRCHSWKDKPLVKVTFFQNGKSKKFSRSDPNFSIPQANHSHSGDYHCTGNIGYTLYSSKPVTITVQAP

T2: Biotin-FcγRIIB (human, UniProt P31994 43-217, limits assumed, biotin label)
T2 construct: Soluble labelled protein used to stain and sort the display cells; also called human FcγRIIB; CD32b
T2 sequence (looked up): T1 sequence (looked up)

B1: human IgG2 anti-mouse CD40 surface displayed antibody, S267E/P271V (antibody, name in EU numbering)
light chain (with the P2A rest): DTVLTQSPALAVSPGERVTISCRASDSVSTLMHWYQQKPGQQPKLLIYLASHLESGVPARFSGSGSGTDFTLTIDPVEADDTATYYCQQSWNDPWTFGGGTKLELKRTVAAPSVFIFPPSDEQLKSGTASVVCLLNNFYPREAKVQWKVDNALQSGNSQESVTEQDSKDSTYSLSSTLTLSKADYEKHKVYACEVTHQGLSSPVTKSFNRGECGSGATNFSLLKQAGDVEENPG
heavy chain: EVQLVESDGGLVQPGRSLKLPCAASGFTFSDYYMAWVRQAPTKGLEWVASISYDGSSTYYRDSVKGRFTISRDNAKSTLYLQMDSLRSEDTATYYCGRHSSYFDYWGQGVMVTVSSASTKGPSVFPLAPCSRSTSESTAALGCLVKDYFPEPVTVSWNSGALTSGVHTFPAVLQSSGLYSLSSVVTVPSSNFGTQTYTCNVDHKPSNTKVDKTVERKCCVECPPCPAPPVAGPSVFLFPPKPKDTLMISRTPEVTCVVVDVEHEDVEVQFNWYVDGVEVHNAKTKPREEQFNSTFRVVSVLTVVHQDWLNGKEYKCKVSNKGLPAPIEKTISKTKGQPREPQVYTLPPSREEMTKNQVSLTCLVKGFYPSDIAVEWESNGQPENNYKTTPPMLDSDGSFFLYSKLTVDKSRWQQGNVFSCSVMHEALHNHYTQKSLSLSPGKLEPPPSTVSNMATVAVLVVLGAAIVTGAVVAFVMKMRRRNTGGKGGDYALAPGSQTSDLSLPDCKVMVHDPHSLA
notes: m1 with these Fc mutations (Eu numbering); copies: 2 + 2
B2: human IgG2 anti-mouse CD40 surface displayed antibody, V266A/P271C (antibody, name in EU numbering)
light chain (with the P2A rest): B1 light chain (with the P2A rest)
heavy chain: B1 heavy chain with V261A, E262S, V266C
notes: as for B1
B3: human IgG2 anti-mouse CD40 surface displayed antibody, S267M/P271C (antibody, name in EU numbering)
light chain (with the P2A rest): B1 light chain (with the P2A rest)
heavy chain: B1 heavy chain with E262M, V266C
notes: as for B1
B4: human IgG2 anti-mouse CD40 surface displayed antibody, S267G (antibody, name in EU numbering)
light chain (with the P2A rest): B1 light chain (with the P2A rest)
heavy chain: B1 heavy chain with E262G, V266P
notes: m1 with this Fc mutation (Eu numbering); copies: 2 + 2
B5: human IgG2 anti-mouse CD40 surface displayed antibody, S267E/P271Y (antibody, name in EU numbering)
light chain (with the P2A rest): B1 light chain (with the P2A rest)
heavy chain: B1 heavy chain with V266Y
notes: as for B1
B6: human IgG2 anti-mouse CD40 surface displayed antibody, S267E/P271W (antibody, name in EU numbering)
light chain (with the P2A rest): B1 light chain (with the P2A rest)
heavy chain: B1 heavy chain with V266W
notes: as for B1
B7: human IgG2 anti-mouse CD40 surface displayed antibody, S267M/P271G (antibody, name in EU numbering)
light chain (with the P2A rest): B1 light chain (with the P2A rest)
heavy chain: B1 heavy chain with E262M, V266G
notes: as for B1
B8: human IgG2 anti-mouse CD40 surface displayed antibody, V266G/P271C (antibody, name in EU numbering)
light chain (with the P2A rest): B1 light chain (with the P2A rest)
heavy chain: B1 heavy chain with V261G, E262S, V266C
notes: as for B1
B9: human IgG2 anti-mouse CD40 surface displayed antibody, V266A/P271G (antibody, name in EU numbering)
light chain (with the P2A rest): B1 light chain (with the P2A rest)
heavy chain: B1 heavy chain with V261A, E262S, V266G
notes: as for B1
B10: human IgG2 anti-mouse CD40 surface displayed antibody, S267Q (antibody, name in EU numbering)
light chain (with the P2A rest): B1 light chain (with the P2A rest)
heavy chain: B1 heavy chain with E262Q, V266P
notes: as for B4
B11: human IgG2 anti-mouse CD40 surface displayed antibody, S267M (antibody, name in EU numbering)
light chain (with the P2A rest): B1 light chain (with the P2A rest)
heavy chain: B1 heavy chain with E262M, V266P
notes: as for B4
B12: human IgG2 anti-mouse CD40 surface displayed antibody, S239V/V266L/S298L/L328W (antibody, name in EU numbering)
light chain (with the P2A rest): B1 light chain (with the P2A rest)
heavy chain: B1 heavy chain with S234V, V261L, E262S, V266P, S293L, L323W
notes: As m1 with the Fc mutations
B13: human IgG2 anti-mouse CD40 surface displayed antibody, S267V/S298L/L328W (antibody, name in EU numbering)
light chain (with the P2A rest): B1 light chain (with the P2A rest)
heavy chain: B1 heavy chain with E262V, V266P, S293L, L323W
notes: As m1 with the Fc mutations
B14: human IgG2 anti-mouse CD40 surface displayed antibody, V266L/L328W (antibody, name in EU numbering)
light chain (with the P2A rest): B1 light chain (with the P2A rest)
heavy chain: B1 heavy chain with V261L, E262S, V266P, L323W
notes: As m1 with the Fc mutations
B15: human IgG2 anti-mouse CD40 surface displayed antibody, H268D/S298L/L328W (antibody, name in EU numbering)
light chain (with the P2A rest): B1 light chain (with the P2A rest)
heavy chain: B1 heavy chain with E262S, H263D, V266P, S293L, L323W
notes: As m1 with the Fc mutations
B16: human IgG2 anti-mouse CD40 surface displayed antibody, S267V/S298G/L328W (antibody, name in EU numbering)
light chain (with the P2A rest): B1 light chain (with the P2A rest)
heavy chain: B1 heavy chain with E262V, V266P, S293G, L323W
notes: As m1 with the Fc mutations
B17: human IgG2 anti-mouse CD40 surface displayed antibody, V266L/S298L/L328W (antibody, name in EU numbering)
light chain (with the P2A rest): B1 light chain (with the P2A rest)
heavy chain: B1 heavy chain with V261L, E262S, V266P, S293L, L323W
notes: As m1 with the Fc mutations

The target in the first assay is T1, Biotin-FcγRIIB (human FcγRIIB, Sino …). The experiment in a line: NGS after FACS sort of 3T3-displayed Library2 for biotin-FcγRIIB binding.
On to B1, for which the “Enrichment factor (percentage after sorting/percentage before sorting)” value turned out to be 22.1 and the “Increased factor (enrichment factor/wild-type enrichment factor)” value came out at 38.4.

Consider B2, for which the “Enrichment factor (percentage after sorting/percentage before sorting)” value stood at 42.2 and the “Increased factor (enrichment factor/wild-type enrichment factor)” value came to 73.5.

Take B3: the “Enrichment factor (percentage after sorting/percentage before sorting)” value came to 32.1 and the “Increased factor (enrichment factor/wild-type enrichment factor)” value is 56.

On to B4, for which the “Enrichment factor (percentage after sorting/percentage before sorting)” value is 1.79 and the “Increased factor (enrichment factor/wild-type enrichment factor)” value amounted to 3.5.

For B5, the “Enrichment factor (percentage after sorting/percentage before sorting)” value is 19.2 and the “Increased factor (enrichment factor/wild-type enrichment factor)” value is 33.4.

B6: the “Enrichment factor (percentage after sorting/percentage before sorting)” value was 24 and the “Increased factor (enrichment factor/wild-type enrichment factor)” value was found to be 41.8.

As for B7, the “Enrichment factor (percentage after sorting/percentage before sorting)” value came out at 4.31 and the “Increased factor (enrichment factor/wild-type enrichment factor)” value was found to be 7.52.

With B8, the “Enrichment factor (percentage after sorting/percentage before sorting)” value is 3.83 and the “Increased factor (enrichment factor/wild-type enrichment factor)” value was 6.68.

As for B9, the “Enrichment factor (percentage after sorting/percentage before sorting)” value is 8.63 and the “Increased factor (enrichment factor/wild-type enrichment factor)” value is 15.

Regarding B10, the “Enrichment factor (percentage after sorting/percentage before sorting)” value turned out to be 8.64 and the “Increased factor (enrichment factor/wild-type enrichment factor)” value amounted to 15.1.

Take B11: the “Enrichment factor (percentage after sorting/percentage before sorting)” value is 1.48 and the “Increased factor (enrichment factor/wild-type enrichment factor)” value amounted to 2.57.

In the next assay the target is T2, Biotin-FcγRIIB. The experiment in a line: NGS of 3T3 display library Cmix flow-sorted for FcγRIIB binding.
For B12, the “enrichment factor, percentage after 2nd sorting/percentage after 1st sorting” value came to 39.1 ratio; the “enrichment factor, percentage after 3rd sorting/percentage after 2nd sorting” value was 5.02 ratio; the “percentage after 1st sorting” value was 0%; the “percentage after 2nd sorting” value was 0.07%. Further, the “percentage after 3rd sorting” value is 0.33%.

As for B13, the “enrichment factor, percentage after 1st sorting/percentage before sorting” value worked out at 3.92 ratio; the “enrichment factor, percentage after 2nd sorting/percentage after 1st sorting” value stood at 73.6 ratio; the “enrichment factor, percentage after 3rd sorting/percentage after 2nd sorting” value was 7.21 ratio; the “enrichment factor, percentage after 3rd sorting/percentage before sorting” value amounted to 2080 ratio. Also, the “increased factor, mutant enrichment factor/wild-type enrichment factor” value is 5550 ratio; the “percentage after 1st sorting” value was determined as 0%; the “percentage after 2nd sorting” value worked out at 0.13%; the “percentage after 3rd sorting” value was determined as 0.9%. The same molecule yielded a percentage before sorting of 0%.

In the case of B14, the “enrichment factor, percentage after 1st sorting/percentage before sorting” value came to 4.71 ratio; the “enrichment factor, percentage after 2nd sorting/percentage after 1st sorting” value was 53.3 ratio; the “enrichment factor, percentage after 3rd sorting/percentage after 2nd sorting” value was determined as 5.53 ratio; the “enrichment factor, percentage after 3rd sorting/percentage before sorting” value was 1390 ratio. The “increased factor, mutant enrichment factor/wild-type enrichment factor” value was determined as 3700 ratio; the “percentage after 1st sorting” value amounted to 0%; the “percentage after 2nd sorting” value stood at 0.22%; the “percentage after 3rd sorting” value worked out at 1.2%. This molecule displayed a percentage before sorting of 0%.

Regarding B15, the “enrichment factor, percentage after 2nd sorting/percentage after 1st sorting” value is 44 ratio; the “enrichment factor, percentage after 3rd sorting/percentage after 2nd sorting” value is 5.95 ratio; the “percentage after 1st sorting” value amounted to 0%; the “percentage after 2nd sorting” value is 0.21%. In addition, the “percentage after 3rd sorting” value was found to be 1.25%.

With B16, the “enrichment factor, percentage after 2nd sorting/percentage after 1st sorting” value stood at 47.4 ratio; the “enrichment factor, percentage after 3rd sorting/percentage after 2nd sorting” value worked out at 5.76 ratio; the “percentage after 1st sorting” value stood at 0%; the “percentage after 2nd sorting” value is 0.03%. Moreover, the “percentage after 3rd sorting” value is 0.19%.

As for B17, the “enrichment factor, percentage after 1st sorting/percentage before sorting” value was 21.1 ratio; the “enrichment factor, percentage after 2nd sorting/percentage after 1st sorting” value stood at 64.8 ratio; the “enrichment factor, percentage after 3rd sorting/percentage after 2nd sorting” value is 6.03 ratio; the “enrichment factor, percentage after 3rd sorting/percentage before sorting” value turned out to be 8230 ratio. For the same molecule, the “increased factor, mutant enrichment factor/wild-type enrichment factor” value was determined as 21900 ratio; the “percentage after 1st sorting” value came to 0.06%; the “percentage after 2nd sorting” value amounted to 4.14%; the “percentage after 3rd sorting” value worked out at 25%. The molecule also yielded a percentage before sorting of 0%.

(Values after US20230220042A1 (SHANGHAI JIAO TONG UNIVERSITY SCHOOL OF MEDICINE, published 2023).)
